Experimental data as given in the supplement of paper PMC10065799, “High-throughput profiling of sequence recognition by tyrosine kinases and SH2 domains using bacterial peptide display” (eLife, 2023).

Assays:
[1] = molecular target: c-Src SH2; assay: SH2 binding enrichment of the phosphorylated peptide, bacterial display (enrichment ratio); higher = better substrate or ligand; peptides without Tyr show the background
[2] = molecular target: SHP2-C SH2; assay: as above
[3] = molecular target: Grb2 SH2 (UniProt P62993); assay: as above
[4] = molecular target: Fes (UniProt P07332); assay: phosphorylation enrichment, bacterial display (enrichment ratio); higher = better substrate or ligand; peptides without Tyr show the background
[5] = molecular target: FGFR3 (UniProt P22607); assay: as above
[6] = molecular target: MERTK (UniProt Q12866); assay: as above
[7] = molecular target: EPHB1 (UniProt P54762); assay: as above
[8] = molecular target: Hck (UniProt P08631); assay: as above
[9] = system: c-Src; assay: as above
[10] = molecular target: FGFR1 (UniProt P11362); assay: as above
[11] = system: c-Abl (mouse); assay: as above
[12] = system: AncSZ; assay: as above
[13] = system: Fer (mouse); assay: as above
[14] = molecular target: Fyn (UniProt P06241); assay: as above
[15] = molecular target: EPHB2 (UniProt P29323); assay: as above
[16] = molecular target: Jak2 (UniProt O60674); assay: as above
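For SH2 binding enrichment of the phosphorylated peptide, bacterial display in this document: peptide library displayed on the E. coli surface as eCPX fusions, selected cells deep-sequenced, score is each peptide's frequency after selection divided by its frequency in the input.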
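For phosphorylation enrichment, bacterial display in this document: 11-residue human phosphosite peptides and single-mutation variants displayed on the E. coli surface, counted by deep sequencing, each peptide's frequency after selection divided by its frequency in the unselected input library; frequency after pTyr selection over input frequency; kinase dosed for 20-30% of maximal phosphorylation in three min.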

MERTK, sequence (Q12866 whole entry, looked up): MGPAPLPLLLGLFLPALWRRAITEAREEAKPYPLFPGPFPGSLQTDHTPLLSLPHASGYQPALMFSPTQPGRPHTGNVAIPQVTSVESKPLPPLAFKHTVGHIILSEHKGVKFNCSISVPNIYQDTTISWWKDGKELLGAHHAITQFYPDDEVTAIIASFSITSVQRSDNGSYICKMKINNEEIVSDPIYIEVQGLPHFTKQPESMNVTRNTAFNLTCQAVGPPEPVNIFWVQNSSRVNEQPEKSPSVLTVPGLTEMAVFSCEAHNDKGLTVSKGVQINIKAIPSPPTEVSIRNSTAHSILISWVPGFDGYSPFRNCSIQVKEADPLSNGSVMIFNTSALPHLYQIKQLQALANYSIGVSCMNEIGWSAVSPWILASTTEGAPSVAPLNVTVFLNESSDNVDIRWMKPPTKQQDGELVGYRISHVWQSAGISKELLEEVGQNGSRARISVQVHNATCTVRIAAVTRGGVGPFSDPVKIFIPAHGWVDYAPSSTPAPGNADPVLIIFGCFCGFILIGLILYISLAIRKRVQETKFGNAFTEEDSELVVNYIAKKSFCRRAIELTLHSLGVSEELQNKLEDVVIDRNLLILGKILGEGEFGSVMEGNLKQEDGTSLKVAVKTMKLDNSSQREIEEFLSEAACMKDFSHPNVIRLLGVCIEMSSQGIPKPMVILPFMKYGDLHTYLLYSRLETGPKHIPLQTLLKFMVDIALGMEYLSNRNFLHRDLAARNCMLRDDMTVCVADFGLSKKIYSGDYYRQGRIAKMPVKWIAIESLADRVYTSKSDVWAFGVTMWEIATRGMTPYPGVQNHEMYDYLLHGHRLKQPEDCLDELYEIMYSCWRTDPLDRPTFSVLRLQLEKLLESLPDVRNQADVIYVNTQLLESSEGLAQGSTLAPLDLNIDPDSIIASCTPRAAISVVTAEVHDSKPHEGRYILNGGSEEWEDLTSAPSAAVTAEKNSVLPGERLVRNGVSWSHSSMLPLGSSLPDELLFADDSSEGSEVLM
EPHB1, sequence (P54762 whole entry, looked up): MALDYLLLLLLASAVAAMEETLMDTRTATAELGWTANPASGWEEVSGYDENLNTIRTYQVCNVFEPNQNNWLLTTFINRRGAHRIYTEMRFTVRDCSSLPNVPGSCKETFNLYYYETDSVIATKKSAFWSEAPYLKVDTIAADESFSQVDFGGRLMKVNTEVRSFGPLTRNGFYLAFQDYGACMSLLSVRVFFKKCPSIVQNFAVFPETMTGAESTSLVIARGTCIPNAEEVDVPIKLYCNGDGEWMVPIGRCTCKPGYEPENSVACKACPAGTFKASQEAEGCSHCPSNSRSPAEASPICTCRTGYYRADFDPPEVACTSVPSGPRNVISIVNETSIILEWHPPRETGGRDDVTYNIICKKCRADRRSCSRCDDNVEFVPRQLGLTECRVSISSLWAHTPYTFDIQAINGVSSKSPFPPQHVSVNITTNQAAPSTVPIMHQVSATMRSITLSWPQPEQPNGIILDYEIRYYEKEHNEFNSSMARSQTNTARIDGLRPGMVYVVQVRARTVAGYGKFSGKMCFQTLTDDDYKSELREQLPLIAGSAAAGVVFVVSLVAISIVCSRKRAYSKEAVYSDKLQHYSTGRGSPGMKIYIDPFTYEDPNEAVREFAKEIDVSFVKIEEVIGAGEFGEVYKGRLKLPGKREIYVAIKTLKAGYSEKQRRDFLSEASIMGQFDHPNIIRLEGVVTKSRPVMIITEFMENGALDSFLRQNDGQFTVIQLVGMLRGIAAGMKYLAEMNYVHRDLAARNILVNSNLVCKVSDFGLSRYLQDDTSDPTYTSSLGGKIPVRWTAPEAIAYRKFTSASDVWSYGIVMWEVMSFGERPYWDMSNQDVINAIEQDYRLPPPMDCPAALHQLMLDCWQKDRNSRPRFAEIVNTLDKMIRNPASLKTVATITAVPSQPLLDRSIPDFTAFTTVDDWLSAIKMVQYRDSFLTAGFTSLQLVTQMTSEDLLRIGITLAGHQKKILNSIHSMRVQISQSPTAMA
Fes, sequence (P07332 whole entry, looked up): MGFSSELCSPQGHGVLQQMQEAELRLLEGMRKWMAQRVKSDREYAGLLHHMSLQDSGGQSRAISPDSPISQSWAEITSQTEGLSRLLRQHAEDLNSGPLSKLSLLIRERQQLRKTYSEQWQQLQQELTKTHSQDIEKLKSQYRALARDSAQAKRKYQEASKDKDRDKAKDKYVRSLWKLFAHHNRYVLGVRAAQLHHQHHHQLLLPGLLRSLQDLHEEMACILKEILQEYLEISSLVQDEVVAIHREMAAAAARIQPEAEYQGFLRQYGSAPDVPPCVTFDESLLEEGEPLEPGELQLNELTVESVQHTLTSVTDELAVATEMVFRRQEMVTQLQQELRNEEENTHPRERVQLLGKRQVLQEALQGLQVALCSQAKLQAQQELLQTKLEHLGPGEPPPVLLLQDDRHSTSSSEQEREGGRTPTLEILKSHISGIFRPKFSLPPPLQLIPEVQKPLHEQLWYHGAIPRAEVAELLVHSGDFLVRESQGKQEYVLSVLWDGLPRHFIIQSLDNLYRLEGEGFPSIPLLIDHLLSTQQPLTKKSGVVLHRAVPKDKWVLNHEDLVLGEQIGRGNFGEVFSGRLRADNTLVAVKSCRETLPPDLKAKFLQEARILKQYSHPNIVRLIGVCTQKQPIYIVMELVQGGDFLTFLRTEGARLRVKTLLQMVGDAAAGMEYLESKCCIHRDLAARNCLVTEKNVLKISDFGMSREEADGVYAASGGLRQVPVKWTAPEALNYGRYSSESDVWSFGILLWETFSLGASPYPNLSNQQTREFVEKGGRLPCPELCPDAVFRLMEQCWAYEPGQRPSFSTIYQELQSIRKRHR
Jak2, sequence (O60674 whole entry, looked up, the tested form may be a part): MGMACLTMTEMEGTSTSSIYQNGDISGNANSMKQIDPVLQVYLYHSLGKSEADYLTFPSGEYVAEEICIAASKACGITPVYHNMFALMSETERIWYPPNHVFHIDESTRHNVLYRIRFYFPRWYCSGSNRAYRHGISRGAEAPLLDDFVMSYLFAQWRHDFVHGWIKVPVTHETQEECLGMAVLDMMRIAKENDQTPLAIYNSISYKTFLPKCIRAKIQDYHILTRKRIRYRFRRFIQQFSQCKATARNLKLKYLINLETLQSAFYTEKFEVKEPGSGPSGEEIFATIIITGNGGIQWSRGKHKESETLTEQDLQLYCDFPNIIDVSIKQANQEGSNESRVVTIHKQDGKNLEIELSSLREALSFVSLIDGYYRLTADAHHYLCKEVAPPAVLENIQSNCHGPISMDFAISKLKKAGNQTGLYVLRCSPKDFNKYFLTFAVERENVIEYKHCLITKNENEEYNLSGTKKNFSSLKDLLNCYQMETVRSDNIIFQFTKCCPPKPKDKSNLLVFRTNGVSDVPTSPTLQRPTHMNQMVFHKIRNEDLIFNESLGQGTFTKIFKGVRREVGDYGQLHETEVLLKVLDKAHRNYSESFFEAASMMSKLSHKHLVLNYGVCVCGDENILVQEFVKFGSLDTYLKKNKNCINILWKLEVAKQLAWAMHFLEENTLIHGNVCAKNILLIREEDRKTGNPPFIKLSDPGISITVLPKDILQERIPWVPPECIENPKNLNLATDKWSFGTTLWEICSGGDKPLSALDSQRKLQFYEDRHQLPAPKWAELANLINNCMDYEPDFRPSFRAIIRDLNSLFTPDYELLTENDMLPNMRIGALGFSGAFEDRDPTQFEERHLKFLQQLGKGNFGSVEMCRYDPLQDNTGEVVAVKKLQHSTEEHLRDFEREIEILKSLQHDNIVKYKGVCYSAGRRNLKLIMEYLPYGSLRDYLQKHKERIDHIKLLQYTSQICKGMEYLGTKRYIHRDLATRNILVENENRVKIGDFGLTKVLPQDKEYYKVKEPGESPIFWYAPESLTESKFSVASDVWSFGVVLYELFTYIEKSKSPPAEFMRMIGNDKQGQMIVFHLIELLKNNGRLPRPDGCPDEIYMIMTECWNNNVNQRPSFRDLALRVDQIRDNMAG
Hck, sequence (P08631 whole entry, looked up): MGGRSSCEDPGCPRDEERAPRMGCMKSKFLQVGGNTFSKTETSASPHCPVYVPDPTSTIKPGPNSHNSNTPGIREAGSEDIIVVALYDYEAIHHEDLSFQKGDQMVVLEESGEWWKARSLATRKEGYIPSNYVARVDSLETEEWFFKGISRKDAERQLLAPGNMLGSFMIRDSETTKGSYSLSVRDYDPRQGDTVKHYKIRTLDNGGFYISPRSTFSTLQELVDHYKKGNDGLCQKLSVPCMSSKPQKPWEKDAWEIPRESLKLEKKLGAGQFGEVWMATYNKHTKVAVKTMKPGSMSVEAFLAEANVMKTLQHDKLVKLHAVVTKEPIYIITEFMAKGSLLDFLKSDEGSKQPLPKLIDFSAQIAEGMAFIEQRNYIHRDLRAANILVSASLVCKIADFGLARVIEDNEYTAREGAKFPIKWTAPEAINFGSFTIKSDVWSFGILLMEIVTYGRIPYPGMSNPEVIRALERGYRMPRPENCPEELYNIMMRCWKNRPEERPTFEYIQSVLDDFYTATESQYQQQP
Grb2 SH2, sequence (P62993 whole entry, looked up): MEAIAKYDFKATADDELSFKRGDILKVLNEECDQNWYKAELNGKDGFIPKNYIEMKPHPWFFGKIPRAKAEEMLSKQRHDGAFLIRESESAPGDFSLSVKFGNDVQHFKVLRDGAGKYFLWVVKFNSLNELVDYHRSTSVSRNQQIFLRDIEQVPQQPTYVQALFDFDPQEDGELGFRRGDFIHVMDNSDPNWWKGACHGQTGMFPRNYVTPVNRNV

Sequence | SH2 binding enrichment [1] | SH2 binding enrichment [2] | SH2 binding enrichment [3] | phosphorylation enrichment [4] | phosphorylation enrichment [5] | phosphorylation enrichment [6] | phosphorylation enrichment [7] | phosphorylation enrichment [8] | phosphorylation enrichment [9] | phosphorylation enrichment [10] | phosphorylation enrichment [11] | phosphorylation enrichment [12] | phosphorylation enrichment [13] | phosphorylation enrichment [14] | phosphorylation enrichment [15] | phosphorylation enrichment [16]
RWHEGYRQTPR [CD44_Y412_K417R] | 1.7 | 1.23 | 1.43 | 0.851 | 0.663 | 0.539 | 0.461 | 0.345 | 0.35 | 0.433 | 0.65 | 0.645 | 0.613 | 0.299 | 0.383 | 0.539
GYIISYREEEQ | 0.527 | 1.04 | 0.857 | 2.14 | 0.586 | 0.539 | 0.48 | 0.473 | 0.516 | 0.532 | 0.909 | 1.79 | 0.596 | 0.546 | 0.599 | 1.53
FTYDPYSEEEP [IL2RB_Y387_D391E] | 0.817 | 0.699 | 0.92 | 1.25 | 0.818 | 0.524 | 0.652 | 0.825 | 1.69 | 0.5 | 0.915 | 1.22 | 0.601 | 1.14 | 0.572 | 1.27
KSMFVYCTPNK [ATP2A2_Y497_S495F] | 0.679 | 0.484 | 0.925 | 1.19 | 0.768 | 0.452 | 0.6 | 0.568 | 0.494 | 0.587 | 1.05 | 1.22 | 0.565 | 0.473 | 0.673 | 1.12
TESALYGCTVL [KIAA1804_Y724] | 0.552 | 0.916 | 0.82 | 1.27 | 1.15 | 1.46 | 0.686 | 4.05 | 4.74 | 0.559 | 1.04 | 1.13 | 4.71 | 5.57 | 0.885 | 1.12
SLEKSYELLDG [ACTB_Y240_P243L] | 4.69 | 0.729 | 1.01 | 1.16 | 0.963 | 0.555 | 0.575 | 0.595 | 0.52 | 0.508 | 0.956 | 1.16 | 0.705 | 0.533 | 0.584 | 1.25
GGMTEYKLVVV [KRAS_Y4] | 0.649 | 2.14 | 0.985 | 0.929 | 0.776 | 0.368 | 0.514 | 0.446 | 0.369 | 1.01 | 0.539 | 0.852 | 0.423 | 0.488 | 0.569 | 0.685
RKNAKYLLKGE [CDH5_Y82] | 0.749 | 1.06 | 1.19 | 1.37 | 0.545 | 0.718 | 0.848 | 0.577 | 0.687 | 0.712 | 0.901 | 0.779 | 0.666 | 0.64 | 0.821 | 0.827
AFSLKYEQQTQ [SYTL4_Y366] | 0.587 | 0.67 | 1.09 | 1.21 | 0.841 | 0.491 | 0.694 | 0.535 | 0.364 | 0.53 | 0.564 | 1.03 | 0.719 | 0.437 | 0.624 | 0.982
SVMVPYEPPEV [TP53_Y220_V217M] | 0.608 | 0.626 | 0.786 | 1.15 | 0.662 | 0.433 | 0.515 | 0.496 | 0.465 | 0.52 | 0.804 | 1.04 | 0.56 | 0.481 | 0.54 | 1.09
KSLFHYRQFSA [CPS1_Y1491_YF] | 0.395 | 0.601 | 0.734 | 0.859 | 0.498 | 0.415 | 0.553 | 0.42 | 0.472 | 0.546 | 0.59 | 0.656 | 0.534 | 0.466 | 0.453 | 0.942
FLQEIYNSNNQ [FGG_Y140_YF] | 0.53 | 1.1 | 0.89 | 1.08 | 0.883 | 0.514 | 0.79 | 1.69 | 1.64 | 0.65 | 0.713 | 1.07 | 0.63 | 1.46 | 0.602 | 0.907
REVKAYGAGLL [TH_Y419_G414R] | 0.618 | 0.776 | 0.786 | 0.649 | 0.817 | 0.411 | 0.487 | 0.419 | 0.363 | 0.411 | 0.55 | 0.559 | 0.853 | 0.532 | 0.405 | 0.53
VASMFYTLVIP [OR8K3_Y277_I275M] | 0.783 | 1.13 | 1.22 | 1.14 | 2.37 | 5.7 | 1.13 | 0.667 | 1.38 | 2.79 | 0.691 | 1.96 | 3.5 | 0.661 | 0.82 | 1.51
FSDQVYRQHRK [TH_Y230_R233H] | 0.624 | 0.539 | 1.03 | 0.644 | 0.441 | 0.357 | 0.335 | 0.447 | 0.452 | 0.388 | 0.819 | 0.555 | 0.355 | 0.378 | 0.452 | 0.529
RLAKRYLIWEC [SCN5A_Y694_Q692K] | 0.704 | 0.654 | 0.911 | 1.06 | 0.812 | 0.503 | 0.607 | 0.505 | 0.486 | 0.64 | 0.771 | 1.15 | 0.626 | 0.375 | 0.604 | 0.852
LQIPMYEVQWK [KIT_Y553_K550I] | 0.661 | 1.06 | 0.884 | 2.04 | 0.848 | 7.37 | 22.6 | 2.24 | 1.55 | 1.14 | 1.01 | 2.5 | 2.54 | 2.45 | 24.1 | 0.721

Sequence | SH2 binding enrichment [1] | SH2 binding enrichment [2] | SH2 binding enrichment [3] | phosphorylation enrichment [4] | phosphorylation enrichment [5] | phosphorylation enrichment [6] | phosphorylation enrichment [7] | phosphorylation enrichment [8] | phosphorylation enrichment [9] | phosphorylation enrichment [10] | phosphorylation enrichment [11] | phosphorylation enrichment [12] | phosphorylation enrichment [13] | phosphorylation enrichment [14] | phosphorylation enrichment [15] | phosphorylation enrichment [16]
PVGVLYEVKVF [PTS_Y128_K129E_YF] | 0.611 | 0.836 | 0.992 | 2.67 | 1.41 | 1.16 | 1.5 | 0.986 | 0.89 | 1.02 | 1.29 | 2.17 | 2.05 | 0.849 | 0.91 | 2.08
RAYRRYLLKQK [SCN2A_Y1919] | 0.514 | 0.573 | 0.61 | 0.491 | 0.495 | 0.387 | 0.353 | 0.51 | 0.446 | 0.489 | 0.42 | 0.729 | 0.415 | 0.559 | 0.468 | 0.486
SVVVPYEPLEV [TP53_Y220_P223L] | 2.45 | 0.598 | 0.849 | 1.23 | 0.836 | 0.489 | 0.562 | 0.533 | 0.46 | 0.531 | 0.697 | 1.19 | 0.934 | 0.587 | 0.602 | 0.947
INITIYGKTFC [EFHC1_Y177_R182C] | 0.538 | 0.737 | 0.881 | 1.48 | 0.909 | 0.548 | 0.656 | 0.505 | 0.597 | 0.581 | 0.982 | 1.22 | 0.617 | 0.532 | 0.684 | 1.38
RKKEEYKMALY [F8_Y1990] | 0.931 | 0.762 | 1.38 | 0.708 | 0.33 | 0.462 | 0.337 | 1.05 | 0.546 | 0.58 | 0.632 | 0.492 | 0.289 | 0.46 | 0.387 | 0.477
SKAFAYVHFDS [PABPC5_Y149_G146A_YF] | 1.44 | 0.913 | 0.942 | 1.36 | 0.828 | 0.443 | 0.447 | 0.51 | 0.424 | 0.449 | 0.669 | 0.935 | 0.537 | 0.382 | 0.483 | 1.09
HNLFSYPTKFE [MYO3A_Y1396_H1400Y_YF] | 0.503 | 1.56 | 0.706 | 1.29 | 0.752 | 0.569 | 0.474 | 0.684 | 0.703 | 0.671 | 0.881 | 0.869 | 0.562 | 0.565 | 0.507 | 1.44
GEEIKYMLWLS [OTC_Y55] | 0.346 | 0.714 | 0.646 | 1.28 | 0.934 | 0.703 | 0.592 | 0.645 | 0.518 | 0.682 | 1.19 | 1.24 | 0.745 | 0.493 | 0.62 | 1.21
NDDDVYRSLEE [VAV2_Y142] | 0.606 | 0.748 | 1 | 1.23 | 0.793 | 0.524 | 0.6 | 0.665 | 0.584 | 0.608 | 0.898 | 1.19 | 0.526 | 0.53 | 0.722 | 1.24
SSENPCATIKD [MEGF10_Y1030_Y1030C] | 0.541 | 0.806 | 0.795 | 0.823 | 0.602 | 0.438 | 0.43 | 0.492 | 0.465 | 0.554 | 0.509 | 0.812 | 0.445 | 0.468 | 0.494 | 0.66
VICRRYLVMQR [IL3RA_Y328] | 0.354 | 0.416 | 0.816 | 1.05 | 0.74 | 0.531 | 0.456 | 0.487 | 0.342 | 0.786 | 0.618 | 1.24 | 0.46 | 0.595 | 0.69 | 0.894
TKVVHYRKWIK [KLK2_Y249] | 0.558 | 0.912 | 1.12 | 0.614 | 0.432 | 0.379 | 0.483 | 0.443 | 0.595 | 0.375 | 0.462 | 0.632 | 0.373 | 0.382 | 0.318 | 0.415
ASKEPYFVRCI [MYO1D_Y585_YF] | 0.398 | 0.448 | 0.904 | 1.77 | 0.93 | 0.574 | 0.762 | 0.659 | 0.611 | 0.449 | 0.938 | 1.38 | 0.569 | 0.622 | 0.734 | 1.22
EPVSDYINASI [PTPN11_Y304_N308S] | 0.512 | 0.593 | 1.06 | 1.03 | 0.651 | 0.494 | 0.608 | 0.49 | 0.526 | 0.569 | 0.909 | 1.05 | 0.5 | 0.385 | 0.566 | 0.953
TYAVSYLPDMS [FLNC_Y1602_T1599A] | 0.674 | 0.95 | 0.809 | 0.763 | 0.576 | 1.6 | 0.559 | 0.732 | 0.811 | 0.428 | 0.963 | 0.867 | 0.575 | 0.589 | 0.785 | 0.924
FGRTFYNQAIM [MCCC2_Y196] | 0.625 | 0.592 | 0.672 | 1.04 | 0.535 | 0.431 | 0.476 | 0.462 | 0.463 | 0.377 | 0.635 | 1.08 | 0.411 | 0.407 | 0.529 | 0.96
